PMC3518660 (Journal of immunology (Baltimore, Md. : 1950), 2012)
Read-outs that look alike come from different tables or passages of the source.

Legend:
[1] = target: T1, recombinant soluble integrin αvβ3 (UniProt P06756 31-987; P05106 27-718); assay: SPR
[2] = target: T1, recombinant soluble integrin αvβ3; assay: SPR; remark: listed apart in the source
[3] = target: T1, recombinant soluble integrin αvβ3; assay: ELISA

T1 sequence (P06756 31-987, chain 1 of 2): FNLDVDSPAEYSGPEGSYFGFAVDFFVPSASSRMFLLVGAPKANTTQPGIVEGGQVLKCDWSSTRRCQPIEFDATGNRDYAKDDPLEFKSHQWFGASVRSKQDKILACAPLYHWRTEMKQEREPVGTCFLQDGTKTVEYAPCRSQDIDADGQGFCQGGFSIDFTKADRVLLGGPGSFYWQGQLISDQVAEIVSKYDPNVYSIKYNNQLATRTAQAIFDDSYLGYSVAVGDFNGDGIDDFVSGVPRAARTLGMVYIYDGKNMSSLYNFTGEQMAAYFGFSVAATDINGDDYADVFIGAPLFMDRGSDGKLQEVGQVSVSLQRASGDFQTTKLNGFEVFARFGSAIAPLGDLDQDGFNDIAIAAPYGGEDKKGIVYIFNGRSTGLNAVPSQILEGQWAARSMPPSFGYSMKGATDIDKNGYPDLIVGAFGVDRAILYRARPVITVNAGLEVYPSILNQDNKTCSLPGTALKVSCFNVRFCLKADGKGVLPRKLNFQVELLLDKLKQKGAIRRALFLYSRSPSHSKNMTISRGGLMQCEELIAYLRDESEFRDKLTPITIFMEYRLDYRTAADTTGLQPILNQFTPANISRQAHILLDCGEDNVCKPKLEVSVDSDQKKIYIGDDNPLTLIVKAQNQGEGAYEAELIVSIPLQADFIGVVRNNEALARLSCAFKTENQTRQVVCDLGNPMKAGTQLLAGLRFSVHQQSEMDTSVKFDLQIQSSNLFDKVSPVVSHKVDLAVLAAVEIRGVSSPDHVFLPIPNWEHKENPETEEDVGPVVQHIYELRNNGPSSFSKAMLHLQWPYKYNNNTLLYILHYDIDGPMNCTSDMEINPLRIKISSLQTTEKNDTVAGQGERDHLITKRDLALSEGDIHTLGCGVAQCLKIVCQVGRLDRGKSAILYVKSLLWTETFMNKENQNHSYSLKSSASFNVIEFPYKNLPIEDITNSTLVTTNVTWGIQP
T1 sequence (P05106 27-718, chain 2 of 2): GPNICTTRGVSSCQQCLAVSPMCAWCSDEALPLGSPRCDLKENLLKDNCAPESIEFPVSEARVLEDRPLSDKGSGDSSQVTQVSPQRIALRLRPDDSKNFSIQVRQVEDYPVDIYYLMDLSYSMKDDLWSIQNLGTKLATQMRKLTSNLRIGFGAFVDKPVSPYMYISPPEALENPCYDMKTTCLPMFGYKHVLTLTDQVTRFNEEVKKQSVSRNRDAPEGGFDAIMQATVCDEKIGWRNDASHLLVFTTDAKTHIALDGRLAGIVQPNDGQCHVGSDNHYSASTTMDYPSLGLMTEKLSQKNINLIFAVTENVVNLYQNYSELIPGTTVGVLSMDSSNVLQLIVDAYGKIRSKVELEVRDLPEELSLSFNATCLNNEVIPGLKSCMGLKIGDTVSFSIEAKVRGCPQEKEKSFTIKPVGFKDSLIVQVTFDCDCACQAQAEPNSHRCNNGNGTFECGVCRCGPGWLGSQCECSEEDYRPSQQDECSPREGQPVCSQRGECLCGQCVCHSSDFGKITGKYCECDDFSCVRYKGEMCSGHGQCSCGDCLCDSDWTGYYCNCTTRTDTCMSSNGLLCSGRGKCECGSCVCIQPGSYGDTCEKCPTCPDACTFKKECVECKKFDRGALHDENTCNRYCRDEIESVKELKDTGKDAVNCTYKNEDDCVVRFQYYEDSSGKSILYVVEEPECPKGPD

Row | Binder | Kd [1] [nM] | Kd [2] [nM] | binding result [3]
1 | FKN-CD Arg47 to Ala mutant (R47A) (domain or fragment, human) QHHGVTKCNITCSKMTSKIPVALLIHYQQNQASCGKRAIILETRQHALFCADPKEQWVKDAMQHLDRQAAALTRNG |  |  | binds
2 | FKN-CD Lys54/Lys59 to Ala mutant (K54A/K59A) (domain or fragment, human) QHHGVTKCNITCSKMTSKIPVALLIHYQQNQASCGKRAIILETRQHRLFCADPAEQWVADAMQHLDRQAAALTRNG |  |  | binds

Next, values leading:

Row | Kd [1] [nM] | Kd [2] [nM] | binding result [3] | Binder
3 | 6.9 | 11 |  | chemokine domain of fractalkine (FKN-CD), wild type, 6His-tagged (domain or fragment, human) QHHGVTKCNITCSKMTSKIPVALLIHYQQNQASCGKRAIILETRQHRLFCADPKEQWVKDAMQHLDRQAAALTRNG
4 |  |  | binds | FKN-CD Lys54 to Ala mutant (K54A) (domain or fragment, human) QHHGVTKCNITCSKMTSKIPVALLIHYQQNQASCGKRAIILETRQHRLFCADPAEQWVKDAMQHLDRQAAALTRNG
